From publication PMC5718245

Assays:
[1] = target: PSD95 PDZ3 (Rattus norvegicus) (UniProt P31016); settings: cited from earlier work
[2] = target: GST-PDZ3 fusion protein (PDZ3 domain of SAP97); test: SPR; Biacore3000; anti-GST antibody immobilised, GST-PDZ3 captured (1200-1700 RU), GST on the reference cell subtracted; peptides as analytes at 62.5 nM to 12.8 µM, 30 µl/min; HBS (0.01 M HEPES, 0.15 M NaCl, 3 mM EDTA, 0.005% Surfactant P20); steady-state affinity fit, 1:1 model

Sequence of UniProt P31016 (P31016 310-396): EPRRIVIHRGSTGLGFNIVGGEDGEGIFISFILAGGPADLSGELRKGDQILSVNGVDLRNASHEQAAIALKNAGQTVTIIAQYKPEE

Kd [2] [µM] | Molecule | Kd [1] [µM]
– | CRIPT C-terminal 9 amino acids (from UniProt Q792Q4) | 1
6.57 | AMCGKKVLDTKNYKQTSV [peptide CHRK1 (C-terminal 18 amino acids of CRIPT)] | –
